Test results reported in patent publication US20220119534A1 (DRAGONFLY THERAPEUTICS, published 2022).

Key:
[1] = molecular target: T1, Human CLEC12A expressed on cells (Ba/F3-hCLEC12A, PL21, HL60) (human, UniProt Q5QGZ9 1-265); test: flow cytometry on PL21 AML cells
T1 construct: Ba/F3 cells transduced with human CLEC12A; PL21 and HL60 AML lines express it endogenously; also called cell surface expressed CLEC12A
T1 sequence: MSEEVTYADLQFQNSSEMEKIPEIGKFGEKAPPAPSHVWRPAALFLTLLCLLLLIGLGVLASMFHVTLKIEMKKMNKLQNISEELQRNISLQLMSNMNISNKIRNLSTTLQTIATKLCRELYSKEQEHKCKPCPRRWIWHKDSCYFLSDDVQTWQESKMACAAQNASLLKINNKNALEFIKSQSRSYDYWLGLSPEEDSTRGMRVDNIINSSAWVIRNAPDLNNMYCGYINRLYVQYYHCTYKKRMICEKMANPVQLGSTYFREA
Text: The EC50 values were derived from the cell binding curves using GraphPad Prism software (four parameter logistic non-linear regression curve fitting model).

[2] = molecular target: T1, Human CLEC12A expressed on cells …; test: cell-based or functional assay
[3] = molecular target: T2, Human CLEC12A-His (recombinant, K244 WT) (human, UniProt Q5QGZ9 65-265); test: SPR, two-state fit; control sample
T2 construct: Made in house (Dragonfly Tx); also called hCLEC12A; hCLEC12A-His; not shown: His tag
T2 sequence: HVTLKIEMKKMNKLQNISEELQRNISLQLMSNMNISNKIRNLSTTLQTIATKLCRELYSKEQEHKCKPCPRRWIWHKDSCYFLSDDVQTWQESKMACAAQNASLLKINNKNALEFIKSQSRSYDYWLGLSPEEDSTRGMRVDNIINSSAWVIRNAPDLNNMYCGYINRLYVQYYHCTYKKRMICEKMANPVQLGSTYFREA

[4] = molecular target: T1, Human CLEC12A expressed on cells …; test: cell-based or functional assay; remark: listed apart in the source
[5] = molecular target: T2, Human CLEC12A-His (recombinant, K244 WT); test: SPR, two-state fit (kd1); control sample
Experimental: (§1) Briefly, human Fc specific antibodies were covalently immobilized at a density ˜8000-10000 resonance units (RU) on carboxy methyl dextran matrix of a CM5 biosensor chip via amine-coupling chemistry to create an anti-hFc IgG chip. […] Association was monitored for 300 seconds and dissociation was monitored for 600 seconds. Surfaces were regenerated between cycles with three pulses of 10 mM glycine-HCl, pH 1.7 injected for 20 seconds at 100 μl/min. HBS-EP+ (1×) with 0.1 mg/ml BSA was used as running buffer throughout the experiment. Experiments were performed at physiological temperature of 37° C. To obtain kinetic rate constants and overall binding affinity, double-referenced data were fit to a two-state kinetic model using Biacore 8K Insight Evaluation software (Cytiva).

Human CD32b (FcγRIIb) = molecular target: T3, Human CD32b (FcγRIIb) (human, UniProt P31994 46-217, limits assumed, biotinylated); test: SPR 25C, average
T3 construct: Bought recombinant receptor; also called hFcγRIIb; CD32b (FcγR2b)
T3 sequence (looked up): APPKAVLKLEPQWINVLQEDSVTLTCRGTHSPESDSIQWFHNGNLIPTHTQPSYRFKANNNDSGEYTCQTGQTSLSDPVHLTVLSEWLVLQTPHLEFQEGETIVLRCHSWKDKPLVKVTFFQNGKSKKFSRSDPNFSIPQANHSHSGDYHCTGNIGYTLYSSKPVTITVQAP

[6] = molecular target: T4, De-glycosylated human CLEC12A (human, UniProt Q5QGZ9 65-265, treated with PNGaseF (N-linked glycans removed)); test: SPR, two-state fit (kd1)
T4 construct: Same recombinant antigen as m2 after PNGaseF; also called De-glycosylated CLEC12A
T4 sequence: T2 sequence
Experimental: as §1

[7] = molecular target: T5, De-sialylated human CLEC12A (human, UniProt Q5QGZ9 65-265, treated with neuraminidase (terminal sialic acids removed)); test: SPR, two-state fit (kd1)
T5 construct: Same recombinant antigen as m2 after neuraminidase; also called De-sialylated CLEC12A
T5 sequence: T2 sequence
Experimental: as §1

- EC50 [1]: 0.45 nM
- Kd [3]: 1 nM
- koff [5]: 0.0476 s⁻¹
- Kd (Human CD32b (FcγRIIb)): 6300 nM
- koff [6]: 0.00633 s⁻¹
- koff [7]: 0.0329 s⁻¹
B1: AB0089 TriNKET (bispecific antibody, human IgG1, kappa)
chain: QLQLQESGPGLVKPSETLSLTCTVSGFSLTNYGLHWIRQPPGKCLEWIGVIWVGGATDYNPSLKSRVTISVDTSKNQFSLKLSSVQAADTAVYYCAKGDYGDTLDYWGQGTLVTVSSGGGGSGGGGSGGGGSGGGGSDIQMTQSPSSLSASVGDRVTITCHASQNINFWLSWYQQKPGKAPKLLIYEASNLHTGVPSRFSGSGSGTDFTLTISSLQPEDFATYYCQQSHSYPLTFGCGTKLEIKGSDKTHTCPPCPAPELLGGPSVFLFPPKPKDTLMISRTPEVTCVVVDVSHEDPEVKFNWYVDGVEVHNAKTKPREEQYNSTYRVVSVLTVLHQDWLNGKEYKCKVSNKALPAPIEKTISKAKGQPREPRVYTLPPCRDELTKNQVSLTCLVKGFYPSDIAVEWESNGQPENNYKTTPPVLVSDGSFTLYSKLTVDKSRWQQGNVFSCSVMHEALHNHYTQKSLSLSPG
heavy: EVQLVESGGGLVKPGGSLRLSCAASGFTFSSYSMNWVRQAPGKGLEWVSSISSSSSYIYYADSVKGRFTISRDNAKNSLYLQMNSLRAEDTAVYYCARGAPIGAAAGWFDPWGQGTLVTVSSASTKGPSVFPLAPSSKSTSGGTAALGCLVKDYFPEPVTVSWNSGALTSGVHTFPAVLQSSGLYSLSSVVTVPSSSLGTQTYICNVNHKPSNTKVDKKVEPKSCDKTHTCPPCPAPELLGGPSVFLFPPKPKDTLMISRTPEVTCVVVDVSHEDPEVKFNWYVDGVEVHNAKTKPREEQYNSTYRVVSVLTVLHQDWLNGKEYKCKVSNKALPAPIEKTISKAKGQPREPQVCTLPPSRDELTENQVSLTCLVKGFYPSDIAVEWESNGQPENNYKTTPPVLDSDGSFFLYSWLTVDKSRWQQGNVFSCSVMHEALHNHYTQKSLSLSPG
light: DIQMTQSPSSVSASVGDRVTITCRASQGISSWLAWYQQKPGKAPKLLIYAASSLQSGVPSRFSGSGSGTDFTLTISSLQPEDFATYYCQQGVSFPRTFGGGTKVEIKRTVAAPSVFIFPPSDEQLKSGTASVVCLLNNFYPREAKVQWKVDNALQSGNSQESVTEQDSKDSTYSLSSTLTLSKADYEKHKVYACEVTHQGLSSPVTKSFNRGEC
notes: F3' format heterodimer of three chains; human IgG1 Fc with EW-RVT and Y349C/S354C mutations; also called AB0089 Lot AB0089-002; CLEC12A TriNKET AB0089
- EC50, KHYG-1-CD16aV cytotoxicity assay; after 4 wks 40C in HST pH 6.0 [2]: 0.17 nM
- EC50, KHYG-1-CD16aV cytotoxicity assay; control sample [2]: 0.16 nM
- EC50, KHYG-1-CD16aV mediated cytotoxicity, HL60 cells [4]: 0.27 nM
- EC50, KHYG-1-CD16aV mediated cytotoxicity, PL21 cells [4]: 0.16 nM
